Measured values: the supplement of paper PMC7125110
± gives the standard error. For some of these results: Fewer inactive variants are shown than the library holds.

B1: glmS ribozyme (parent)
chain: AUAAAAGCGCCAGAACUACAGAAAUGUAGUUGACGAGGAGGAGGUUUAUCGAAUUUUCGGCGGAUGCCUCCAAA

Key:
Settings in all cases: with glucosamine-6-phosphate
[1] = variants of: B1; test: kcat; higher = faster cleavage; RNA array
Outline: (§1)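 Glucosamine-6-phosphate, from 40 μM to 10 mM in HEPES/KCl/Mg(OAc)2 buffer, was flowed over sequenced MiSeq chips carrying barcoded ribozyme variants transcribed in situ by E. coli RNA polymerase. A hybridised Cy3 probe tracked the variants at 37 °C as tiles were imaged over ~14 h. kobs, kcat and KM were obtained by fitting normalised per-tile medians to exponential decays and then applying weighted Michaelis–Menten fits across concentrations.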

[2] = variants of: B1; test: KM; higher = weaker cofactor use; RNA array
Outline: as §1

[3] = variants of: B1; test: self-cleavage kobs at 160 uM GlcN6P; higher = faster cleavage; RNA array
Outline: as §1

[4] = variants of: B1; test: self-cleavage kobs at 640 uM GlcN6P; higher = faster cleavage; RNA array
Outline: as §1

[5] = variants of: B1; test: self-cleavage kobs at 2500 uM GlcN6P; higher = faster cleavage; RNA array
Outline: as §1

[6] = variants of: B1; test: self-cleavage kobs at 10000 uM GlcN6P; higher = faster cleavage; RNA array
Outline: as §1

[7] = variants of: B1; test: self-cleavage kobs at 40 uM GlcN6P; higher = faster cleavage; RNA array
Outline: as §1

| Variant | kcat [1] [s⁻¹] | KM [2] [µM] | self-cleavage kobs at 160 uM GlcN6P [3] [s⁻¹] | self-cleavage kobs at 640 uM GlcN6P [4] [s⁻¹] | self-cleavage kobs at 2500 uM GlcN6P [5] [s⁻¹] | self-cleavage kobs at 10000 uM GlcN6P [6] [s⁻¹] | self-cleavage kobs at 40 uM GlcN6P [7] [s⁻¹] |
| --- | --- | --- | --- | --- | --- | --- | --- |
| G44U | 0.000429 ± 5.3e-05 | 2040 ± 470 | 2.34e-05 ± 1.7e-06 | 0.000101 ± 2.1e-06 | 0.000282 ± 6.2e-06 | 0.000335 ± 6.6e-06 |  |
| U31C G37U | < 1e-05 |  |  | < 1e-05 |  |  | < 1e-05 |
| G59C C67A | < 1e-05 |  |  |  |  | < 1e-05 | < 1e-05 |
| G13U A53G C68G | 4.16e-05 ± 3.1e-06 |  |  |  | 4.16e-05 ± 1.5e-05 |  |  |
| C50G U57C | 4.02e-05 ± 1.6e-05 |  | 4.88e-05 ± 2e-05 |  | 5.18e-05 ± 1.7e-05 |  |  |
| A14C A64G | 0.00265 ± 0.00066 | 884 ± 370 | 0.000434 ± 0.0002 | 0.000733 ± 0.00024 | 0.00221 ± 0.00047 | 0.00267 ± 0.00068 | 0.000141 ± 3e-05 |
| U45C A53U | 0.0028 ± 0.0008 | 4320 ± 1700 | 0.000117 ± 2.5e-05 | 0.00031 ± 5e-05 | 0.00109 ± 0.00022 | 0.00199 ± 0.00035 | 4.26e-05 ± 1.2e-05 |
| G41A U46G C70U | 0.00726 ± 0.0013 | 620 ± 170 |  | 0.00452 ± 0.0018 |  | 0.00749 ± 0.002 | 0.000436 ± 0.0001 |
| G32A U65G | 0.000643 ± 0.00019 | 7620 ± 3800 |  | 7.49e-05 ± 2.1e-05 | 0.000139 ± 2.7e-05 | 0.000374 ± 5e-05 |  |
| G66U C68U | 0.000348 ± 2.4e-05 | 1260 ± 190 | 3.82e-05 ± 1.3e-05 | 0.000116 ± 1.2e-05 | 0.000226 ± 4e-05 | 0.000311 ± 2.9e-05 | 2.21e-05 ± 1e-05 |
| G37A A53C | 0.000609 ± 7.9e-05 | 3030 ± 740 |  | 0.00012 ± 2.1e-05 | 0.00027 ± 3.6e-05 | 0.000468 ± 5.8e-05 |  |
| A15C U65G | 0.00172 ± 0.00056 | 4120 ± 1900 | 4.69e-05 ± 1.1e-05 | 0.000252 ± 3.6e-05 | 0.000818 ± 0.00012 | 0.00111 ± 0.00017 | 3.62e-05 ± 1.3e-05 |
| G51U C71G | 1.29e-05 ± 2.7e-06 |  |  |  |  |  |  |
| G60A C70U | 3.47e-05 ± 4e-06 |  |  |  | 1.93e-05 ± 9.2e-06 | 3.02e-05 ± 6.5e-06 | < 1e-05 |
| A6U U55C | 0.000167 ± 2.1e-06 | 1250 ± 45 |  | 5.6e-05 ± 1.6e-05 | 0.000112 ± 1.5e-05 | 0.000148 ± 2.5e-05 |  |
| C16G G29U U54A | 0.024 ± 0.011 |  | 0.000446 ± 0.00014 | 0.00332 ± 0.00054 | 0.0157 ± 0.0041 | 0.0148 ± 0.0026 | 0.000213 ± 4.2e-05 |
